Measured values as given in PMC6677129.

Target: repeat domain (RPT) of Pmel17 (human) (UniProt P40967)
Assay: co-sedimentation

## repeat domain (RPT) of Pmel17 (from UniProt P40967 315-444) (domain or fragment)
  percent of RPT left in the supernatant, 0.1 mM LPG: 54%
  percent of RPT left in the supernatant, 0.5 mM LPG: 16%
  percent of protein in the supernatant, 0 mM LPG: 108%
  percent of protein in the supernatant, 10 mM LPG: 92%
